B1: HC3B216 (bispecific antibody, human IgG1, lambda, L234A L235A)
heavy: QVQLQQSGPRLVRPSQTLSLTCAISGDSVFNNNAAWSWIRQSPSRGLEWLGRTYYRSKWLYDYAVSVKSRITVNPDTSRNQFTLQLNSVTPEDTALYYCARGYSSSFDYWGQGTLVTVSSASTKGPSVFPLAPSSKSTSGGTAALGCLVKDYFPEPVTVSWNSGALTSGVHTFPAVLQSSGLYSLSSVVTVPSSSLGTQTYICNVNHKPSNTKVDKKVEPKSCDKTHTCPPCPAPEAAGGPSVFLFPPKPKDTLMISRTPEVTCVVVSVSHEDPEVKFNWYVDGVEVHNAKTKPREEQYNSTYRVVSVLTVLHQDWLNGKEYKCKVSNKALPAPIEKTISKAKGQPREPQVYVYPPSREEMTKNQVSLTCLVKGFYPSDIAVEWESNGQPENNYKTTPPVLDSDGSFALVSKLTVDKSRWQQGNVFSCSVMHEALHNHYTQKSLSLSPG
light: QSALTQPASVSGSPGQSITISCTGTSSNIGTYKFVSWYQQHPDKAPKVLLYEVSKRPSGVSSRFSGSKSGNTASLTISGLQAEDQADYHCVSYAGSGTLLFGGGTKLTVLGQPKAAPSVTLFPPSSEELQANKATLVCLISDFYPGAVTVAWKADSSPVKAGVETTTPSKQSNNKYAASSYLSLTPEQWKSHRSYSCQVTHEGSTVEKTVAPTECS
scFv: not shown
B2: HC3B124 (bispecific antibody, human IgG1, lambda, L234A L235A)
heavy: EVQLVESGGGLVQPGGSLRLSCAASGFTFNTYAMNWVRQAPGKGLEWVARIRSKYNNYATYYAASVKGRFTISRDDSKNSLYLQMNSLKTEDTAVYYCVRHGNFGNSYVSWFAYWGQGTLVTVSSASTKGPSVFPLAPSSKSTSGGTAALGCLVKDYFPEPVTVSWNSGALTSGVHTFPAVLQSSGLYSLSSVVTVPSSSLGTQTYICNVNHKPSNTKVDKKVEPKSCDKTHTCPPCPAPEAAGGPSVFLFPPKPKDTLMISRTPEVTCVVVSVSHEDPEVKFNWYVDGVEVHNAKTKPREEQYNSTYRVVSVLTVLHQDWLNGKEYKCKVSNKALPAPIEKTISKAKGQPREPQVYVYPPSREEMTKNQVSLTCLVKGFYPSDIAVEWESNGQPENNYKTTPPVLDSDGSFALVSKLTVDKSRWQQGNVFSCSVMHEALHNHYTQKSLSLSPG
light: QTVVTQEPSLTVSPGGTVTLTCRSSTGAVTTSNYANWVQQKPGQAPRGLIGGTNKRAPGTPARFSGSLLGGKAALTLSGVQPEDEAEYYCALWYSNLWVFGGGTKLTVLGQPKAAPSVTLFPPSSEELQANKATLVCLISDFYPGAVTVAWKADSSPVKAGVETTTPSKQSNNKYAASSYLSLTPEQWKSHRSYSCQVTHEGSTVEKTVAPTECS
scFv: DIVMTQSPDSLAVSLGERATINCKSSQSVLHSSNNKNYLTWFQQKPGQPPKLLIYWASTRESGVPDRFSGSGSGTDFTLTISSLQAEDVAVYYCHQYYSTPPTFGQGTKVEIKGGSEGKSSGSGSESKSTGGSQVQLQQSGPGLVKPSQTLSLTCAISGDSVSSNSAAWNWIRQSPSRGLEWLGRTYYRSKWYNDYAVSVKSRITINPDTSKNQISLQLNSVTPEDTAVYYCAGDRRYGIVGLPFAYWGQGTLVTVSSEPKSSDKTHTCPPCPAPEAAGGPSVFLFPPKPKDTLMISRTPEVTCVVVSVSHEDPEVKFNWYVDGVEVHNAKTKPREEQYNSTYRVVSVLTVLHQDWLNGKEYKCKVSNKALPAPIEKTISKAKGQPREPQVYVLPPSREEMTKNQVSLLCLVKGFYPSDIAVEWESNGQPENNYLTWPPVLDSDGSFFLYSKLTVDKSRWQQGNVFSCSVMHEALHNHYTQKSLSLSPG
B3: HC3B123 (bispecific antibody, human IgG1, kappa, L234A L235A)
heavy: EVQLVESGGGLVKPGGSLRLSCAASGFTFSRYNMNWVRQAPGKGLEWVSSISTSSNYIYYADSVKGRFTFSRDNAKNSLDLQMSGLRAEDTAIYYCTRGWGPFDYWGQGTLVTVSSASTKGPSVFPLAPSSKSTSGGTAALGCLVKDYFPEPVTVSWNSGALTSGVHTFPAVLQSSGLYSLSSVVTVPSSSLGTQTYICNVNHKPSNTKVDKKVEPKSCDKTHTCPPCPAPEAAGGPSVFLFPPKPKDTLMISRTPEVTCVVVSVSHEDPEVKFNWYVDGVEVHNAKTKPREEQYNSTYRVVSVLTVLHQDWLNGKEYKCKVSNKALPAPIEKTISKAKGQPREPQVYVYPPSREEMTKNQVSLTCLVKGFYPSDIAVEWESNGQPENNYKTTPPVLDSDGSFALVSKLTVDKSRWQQGNVFSCSVMHEALHNHYTQKSLSLSPG
light: DIQMTQSPSSLSASVGDRVTITCRARQSIGTAIHWYQQKPGKAPKLLIKYASESISGVPSRFSGSGSGTDFTLTISSVQPEDFATYYCQQSGSWPYTFGQGTKLEIKRTVAAPSVFIFPPSDEQLKSGTASVVCLLNNFYPREAKVQWKVDNALQSGNSQESVTEQDSKDSTYSLSSTLTLSKADYEKHKVYACEVTHQGLSSPVTKSFNRGEC
scFv: B2 scFv
B4: HC3B214 (bispecific antibody, human IgG1, kappa, L234A L235A)
heavy: B3 heavy
light: B3 light
scFv: not shown
B5: HC3B238 (bispecific antibody, human IgG1, kappa, L234A L235A)
scFv: EVQLVESGGGLVKPGGSLRLSCAASGFTFSRYNMNWVRQAPGKGLEWVSSISTSSNYIYYADSVKGRFTFSRDNAKNSLDLQMSGLRAEDTAIYYCTRGWGPFDYWGQGTLVTVSSGGSEGKSSGSGSESKSTGGSDIQMTQSPSSLSASVGDRVTITCRARQSIGTAIHWYQQKPGKAPKLLIKYASESISGVPSRFSGSGSGTDFTLTISSVQPEDFATYYCQQSGSWPYTFGQGTKLEIKEPKSSDKTHTCPPCPAPEAAGGPSVFLFPPKPKDTLMISRTPEVTCVVVSVSHEDPEVKFNWYVDGVEVHNAKTKPREEQYNSTYRVVSVLTVLHQDWLNGKEYKCKVSNKALPAPIEKTISKAKGQPREPQVYVYPPSREEMTKNQVSLTCLVKGFYPSDIAVEWESNGQPENNYKTTPPVLDSDGSFALVSKLTVDKSRWQQGNVFSCSVMHEALHNHYTQKSLSLSPGK
heavy: QVQLQQSGPGLVKPSQTLSLTCAISGDSVSSNRAAWNWIRQSPSRGLEWLGRTYYRSKWYNDYAVSVKSRITINPDTSKNQISLQLNSVTPEDTAVYYCARVRPGIPFDYWGQGTPVTVSSASTKGPSVFPLAPSSKSTSGGTAALGCLVKDYFPEPVTVSWNSGALTSGVHTFPAVLQSSGLYSLSSVVTVPSSSLGTQTYICNVNHKPSNTKVDKKVEPKSCDKTHTCPPCPAPEAAGGPSVFLFPPKPKDTLMISRTPEVTCVVVSVSHEDPEVKFNWYVDGVEVHNAKTKPREEQYNSTYRVVSVLTVLHQDWLNGKEYKCKVSNKALPAPIEKTISKAKGQPREPQVYVLPPSREEMTKNQVSLLCLVKGFYPSDIAVEWESNGQPENNYLTWPPVLDSDGSFFLYSKLTVDKSRWQQGNVFSCSVMHEALHNHYTQKSLSLSPG
light: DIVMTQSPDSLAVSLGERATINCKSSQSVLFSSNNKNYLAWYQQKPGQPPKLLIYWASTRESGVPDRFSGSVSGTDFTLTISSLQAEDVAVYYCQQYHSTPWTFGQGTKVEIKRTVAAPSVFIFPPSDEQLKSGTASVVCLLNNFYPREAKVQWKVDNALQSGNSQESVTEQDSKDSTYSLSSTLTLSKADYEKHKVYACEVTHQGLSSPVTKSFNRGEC
B6: HC3B236 (bispecific antibody, human IgG1, kappa, L234A L235A)
scFv: QSALTQPASVSGSPGQSITISCTGTSSNIGTYKFVSWYQQHPGKAPKVMIYEVSKRPSGVSNRFSGSKSGNTASLTISGLQAEDEADYYCVSYAGSGTLLFGGGTKLTVLGGSEGKSSGSGSESKSTGGSQVQLQQSGPGLVKPSQTLSLTCAISGDSVFNNNAAWSWIRQSPSRGLEWLGRTYYRSKWLYDYAVSVKSRITINPDTSKNQFSLQLNSVTPEDTAVYYCARGYSSSFDYWGQGTLVTVSSEPKSSDKTHTCPPCPAPEAAGGPSVFLFPPKPKDTLMISRTPEVTCVVVSVSHEDPEVKFNWYVDGVEVHNAKTKPREEQYNSTYRVVSVLTVLHQDWLNGKEYKCKVSNKALPAPIEKTISKAKGQPREPQVYVYPPSREEMTKNQVSLTCLVKGFYPSDIAVEWESNGQPENNYKTTPPVLDSDGSFALVSKLTVDKSRWQQGNVFSCSVMHEALHNHYTQKSLSLSPG
heavy: B5 heavy
light: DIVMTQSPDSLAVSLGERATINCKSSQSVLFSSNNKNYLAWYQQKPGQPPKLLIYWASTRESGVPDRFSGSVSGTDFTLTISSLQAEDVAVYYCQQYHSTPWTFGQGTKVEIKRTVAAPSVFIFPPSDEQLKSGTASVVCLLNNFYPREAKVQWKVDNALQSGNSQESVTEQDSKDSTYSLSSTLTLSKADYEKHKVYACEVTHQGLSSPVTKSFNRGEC
B7: HC3B237 (bispecific antibody, human IgG1, kappa, L234A L235A)
scFv: DIQMTQSPSSLSASVGDRVTITCRARQSIGTAIHWYQQKPGKAPKLLIKYASESISGVPSRFSGSGSGTDFTLTISSVQPEDFATYYCQQSGSWPYTFGQGTKLEIKGGSEGKSSGSGSESKSTGGSEVQLVESGGGLVKPGGSLRLSCAASGFTFSRYNMNWVRQAPGKGLEWVSSISTSSNYIYYADSVKGRFTFSRDNAKNSLDLQMSGLRAEDTAIYYCTRGWGPFDYWGQGTLVTVSSEPKSSDKTHTCPPCPAPEAAGGPSVFLFPPKPKDTLMISRTPEVTCVVVSVSHEDPEVKFNWYVDGVEVHNAKTKPREEQYNSTYRVVSVLTVLHQDWLNGKEYKCKVSNKALPAPIEKTISKAKGQPREPQVYVYPPSREEMTKNQVSLTCLVKGFYPSDIAVEWESNGQPENNYKTTPPVLDSDGSFALVSKLTVDKSRWQQGNVFSCSVMHEALHNHYTQKSLSLSPGK
heavy: B5 heavy
light: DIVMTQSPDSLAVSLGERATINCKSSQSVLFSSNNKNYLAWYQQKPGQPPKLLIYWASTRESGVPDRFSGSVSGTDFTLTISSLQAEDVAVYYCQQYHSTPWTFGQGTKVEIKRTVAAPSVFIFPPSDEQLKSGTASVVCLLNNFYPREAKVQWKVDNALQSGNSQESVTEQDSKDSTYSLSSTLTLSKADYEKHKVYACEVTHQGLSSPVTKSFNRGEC
B8: CD3W241-HL-E.C. (scFv)
chain: EVQLVESGGGLVKPGGSLRLSCAASGFTFSRYNMNWVRQAPGKGLEWVSSISTSSNYIYYADSVKGRFTFSRDNAKNSLDLQMSGLRAEDTAIYYCTRGWGPFDYWGQGTLVTVSSGTEGKSSGSGSESKSTDIQMTQSPSSLSASVGDRVTITCRARQSIGTAIHWYQQKPGKAPKLLIYYASESISGVPSRFSGSGSGTDFTLTISSVQPEDFATYYCQQSNSWPYTFGQGTKLEIKGPGGQHHHHHHGAYPYDVPDYAS

target: HLA-G on cells (K562-HLA-G and HLA-G expressing tumor cells) (human); experiment: cell-based or functional assay

Binder | Cytotoxicity, EC50 (T cell-mediated, NCI-H2009-b2m target cells, 72 hr)
B1 | 1.9 nM
B2 | 0.00385 nM
B3 | 0.00324 nM
B4 | 0.138 nM
B5 | 0.0173 nM
B6 | 4.54 nM
B7 | 0.133 nM

target: T1, Human CD3 epsilon (CD3ε) of the T cell receptor complex on cells (human, UniProt P07766 23-207); experiment: flow cytometry, E. coli supernatant on human T cells
T1 construct: On Jurkat cells and primary human (pan) T cells; also called T-cell surface glycoprotein CD3 epsilon chain; T3E
T1 sequence (P07766 23-207 limits assumed, one chain of several): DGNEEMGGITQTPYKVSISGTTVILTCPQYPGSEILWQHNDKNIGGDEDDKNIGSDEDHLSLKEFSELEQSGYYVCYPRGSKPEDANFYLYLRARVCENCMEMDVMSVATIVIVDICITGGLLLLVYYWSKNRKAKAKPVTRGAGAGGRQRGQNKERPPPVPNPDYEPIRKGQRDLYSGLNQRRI

Binder | MFI (n = 2)
B8 | 121000

Source: US20220411504A1 (Janssen / Centocor, published 2022)
